Source: publication PMC2929978 (Science (New York, N.Y.), 2010)

How the values were obtained:
Assay in all cases: crystal structure
[1] = molecular target: fiber protein derived from HAdV-35 (fiber of Ad35F) (human adenovirus 35 (HAdV-35))
[2] = molecular target: the molecule itself
[3] = molecular target: hexon (major capsid protein) of the HAdV-5 vector Ad35F (human adenovirus 5 (HAdV-5), UniProt P04133 1-952)

Work on “fiber protein derived from HAdV-35 (fiber of Ad35F) (natural protein)” yielded a stoichiometry N [1] of 3.

B1: penton base (PB) of the HAdV-5 vector Ad35F (natural protein)
chain: MRRAAMYEEGPPPSYESVVSAAPVAAALGSPFDAPLDPPFVPPRYLRPTGGRNSIRYSELAPLFDTTRVYLVDNKSTDVASLNYQNDHSNFLTTVIQNNDYSPGEASTQTINLDDRSHWGGDLKTILHTNMPNVNEFMFTNKFKARVMVSRLPTKDNQVELKYEWVEFTLPEGNYSETMTIDLMNNAIVEHYLKVGRQNGVLESDIGVKFDTRNFRLGFDPVTGLVMPGVYTNEAFHPDIILLPGCGVDFTHSRLSNLLGIRKRQPFQEGFRITYDDLEGGNIPALLDVDAYQASLKDDTEQGGGGAGGSNSSGSGAEENSNAAAAAMQPVEDMNDHAIRGDTFATRAEEKRAEAEAAAEAAAPAAQPEVEKPQKKPVIKPLTEDSKKRSYNLISNDSTFTQYRSWYLAYNYGDPQTGIRSWTLLCTPDVTCGSEQVYWSLPDMMQDPVTFRSTRQISNFPVVGAELLPVHSKSFYNDQAVYSQLIRQFTSLTHVFNRFPENQILARPPAPTITTVSENVPALTDHGTLPLRNSIGGVQRVTITDARRRTCPYVYKALGIVSPRVLSSRTF
With B1 the “stoichiometry N” value [2] was 5.

B2: protein IX of the HAdV-5 vector Ad35F (natural protein)
chain: MSTNSFDGSIVSSYLTTRMPPWAGVRQNVMGSSIDGRPVLPANSTTLTYETVSGTPLETAASAAASAAAATARGIVTDFAFLSPLASSAASRSSARDDKLTALLAQLDSLTRELNVVSQQLLDLRQQVSALKASSPPNAV
B2: binds [3].
